Assay results reported in paper PMC8002523.

Assays:
[1] = system: hemoglobin (Hb); assay: electrochemical displacement from graphene oxide (SWV); conditions: Binding buffer, pH and temperature not given in the material; aptamer stock 2.0 uM in sterile deionized water; ferricyanide redox probe; fluorescence ex 480 / …
[2] = system: immunoglobulin G (IgG); assay: as above; conditions: Binding buffer, pH and temperature not given in the material; aptamer stock 2.0 uM in sterile deionized water; ferricyanide redox probe; fluorescence ex 480 / …

TGCGGTTCGTGCGGTTGTAGTAC [Modified G8-FAM]
binding signal (% current response) [1]: 11.7
binding signal (% current response) [2]: 29.5
